Here are results for 14 sequences from patent publication US20230055235.

For data set [1], the target named is T1, PD-L1 (programmed death-ligand 1) (Homo sapiens?) (UniProt Q9NZQ7). Nature of the data set: inhibition. As to conditions: PD-1/PD-L1 binding ELISA. A general note: An ELISA detects its analyte on a solid surface through an enzyme-linked reagent.
Data set [2] addresses T1, PD-L1 (programmed death-ligand 1). The experiment in a line: filter. As to conditions: 37 C.

T1 sequence (Q9NZQ7 19-238): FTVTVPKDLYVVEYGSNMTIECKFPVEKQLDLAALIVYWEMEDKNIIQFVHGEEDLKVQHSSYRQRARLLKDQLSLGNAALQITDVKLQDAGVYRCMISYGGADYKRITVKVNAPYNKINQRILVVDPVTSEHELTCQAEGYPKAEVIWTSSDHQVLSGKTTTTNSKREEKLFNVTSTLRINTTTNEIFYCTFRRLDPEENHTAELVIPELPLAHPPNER

As a reminder, the IC50 is the point on the concentration scale where inhibition reaches its midpoint. Higher therefore signals a need for much substance. For the sequence AAGTTTTTGATTGTACCTTAGTGC [PL009], in data set [1] (Bz-dU at every n), the IC50 stood at 4.6 nM.

As to ATGAAAAGTTTTTGATTGTACCTTAGTGC [PL004], the IC50 in data set [1] (Bz-dU at every n) was found to be 7 nM.

Consider “ATGAAAAGTTTTTGATTGTACCTTAGTGCACTCAACAGTG [PL019]”, for which the IC50 in data set [1] (Bz-dU at every n) is 15.3 nM.

Take “ATGCCGCACGATCGCCCTATTTTGCGAGTTTAC [PL007]”: in data set [1] (Bz-dU at every n, anti-PD-L1 antibody 1.2 nM), the IC50 was 4.7 nM.

By Kd is commonly meant the equilibrium constant for the complex coming apart. The low end stands for tighter binding, the high end for weaker binding. For the sequence “GAGTGACCGTCTGCCTGATGAAAAGTTTTTGATTGTACCTTAGTGCACTCAACAGTGCAGCCACACCACCAGCC [PL001]”, the IC50 came out at 6 nM in data set [1] (5-(N-benzylcarboxamide)-2'-deoxyuridine (Bz-dU) at every n) and 10.5 nM in data set [1] (5-(N-benzylcarboxamide)-2'-deoxyuridine (Bz-dU) at every n, repeat experiment). In addition, the dissociation constant (Kd) in data set [2] (5-(N-benzylcarboxamide)-2'-deoxyuridine (Bz-dU) at every n, Bmax 0.07) stood at 1.1 nM.

“GAGTGACCGTCTGCCTGCCATTTCCTGCTTGCTCTTCCTCCTTTATTTTTCACCTTTCAGCCACACCACCAGCC [PL029]”: the Kd in data set [2] (Bz-dU at every n, Bmax 0.10) turned out to be 243 nM.

In turn, “GAGTGACCGTCTGCCTGTGTATGCCGCACGATCGCCCTATTTTGCGAGTTTAACTGACAGCCACACCACCAGCC [PL028]” came in with a dissociation constant Kd in data set [2] (Bz-dU at every n, Bmax 0.06) of 1.36 nM.

In data set [1] (Bz-dU at every n), “GAGTGACCGTCTGCCTGTGTATGCCGCACGATCGCCCTATTTTGCGAGTTTACTCACAGCCACACCACCAGCC [PL002]” showed an IC50 of 31.3 nM. In data set [2] (Bz-dU at every n, Bmax 0.05, 40 mM HEPES, 102 mM NaCl, 5 mM KCl), this sequence returned a Kd of 0.18 nM.

“GAGTGACCGTCTGCCTGTTAAGCGGCTAAGTTTTTGATTGTACCTTAGTGCCCTTACCAGCCACACCACCAGCC [PL010]” registered a Kd in data set [2] (Bz-dU at every n, Bmax 0.06) of 0.93 nM.

Regarding “GCCTGATGAAAAGTTTTTGATTGTACCTTAGTGC [PL003]”, the IC50 in data set [1] (Bz-dU at every n) stood at 6.3 nM.

For “GCCTGATGAAAAGTTTTTGATTGTACCTTAGTGCACTCAACAGTGC [PL017]”, in data set [1] (Bz-dU at every n), the IC50 is 4 nM.

“GCCTGATGAAAAGTTTTTGATTGTACCTTAGTGCACTCAACAGTGCAGCC [PL016]” yielded a 50% inhibitory concentration (IC50) in data set [1] (Bz-dU at every n) of 3.3 nM.

On to “GCCTGTGTATGCCGCACGATCGCCCTATTTTGCGAGTTTACTCACAGCC [PL005]”, for which the IC50 in data set [1] (Bz-dU at every n) came out at 12.6 nM.

“TGTATGCCGCACGATCGCCCTATTTTGCGAGTTTACTCA [PL006]” had an IC50 in data set [1] (Bz-dU at every n) of 9.6 nM.
